Measured values taken from patent US20260092124A1.

How the values were obtained:
human CD40 (human) [1] = target: human CD40 (human) (UniProt P25942); experiment: cell binding (GpL luciferase, HT1080-CD40); mean, n=5
human CD40 (human) [2] = target: human CD40 (human) (UniProt P25942); experiment: cell binding (GpL luciferase, HT1080-CD40); single representative experiment

human CD40 (human), sequence (P25942 21-277): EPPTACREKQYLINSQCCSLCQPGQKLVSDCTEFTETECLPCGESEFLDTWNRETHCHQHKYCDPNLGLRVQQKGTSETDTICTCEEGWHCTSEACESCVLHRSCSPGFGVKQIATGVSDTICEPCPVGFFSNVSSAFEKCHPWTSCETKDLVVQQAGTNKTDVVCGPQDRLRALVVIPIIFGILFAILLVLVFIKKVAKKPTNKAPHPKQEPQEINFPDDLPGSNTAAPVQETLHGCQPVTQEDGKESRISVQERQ

Kd (human CD40 (human) [1]) [µg/mL] | Kd (human CD40 (human) [2]) [µg/mL] | Substance
0.334 | 0.35 | CP-870,893 IgG1 variant
0.086 | 0.08 | G28.5 IgG1 variant
0.274 | 0.26 | APX005M IgG1 variant
